The text below walks through data of patent US20150110781A1.

Assay in all cases: cell-based or functional assay
The target in experiment [1] is CVS-11 rabies virus (rabies virus) (UniProt O92284).
For experiment [2], the target named is Street rabies virus Dog, GN07, Guangdong (rabies virus).
In experiment [3] the target is Street rabies virus Deer, DRV, Jilin (rabies virus).
Experiment [4] addresses Street rabies virus Ferret Badger, JX08-45, Jiangxi (rabies virus).
The target of experiment [5] is Street rabies virus Dog, BD06, Hebei (rabies virus).
For experiment [6], the target named is Street rabies virus Dog, SC-CD09, Sichuan (rabies virus).
Experiment [7] addresses Street rabies virus Ferret Badger, ZJ-LA, Zhejiang (rabies virus).
Experiment [8] concerns the target Street rabies virus Ferret Badger, JX09-27, Jiangxi (rabies virus).
Experiment [9] addresses Street rabies virus Human, YN1, Yunnan (rabies virus).
The target in experiment [10] is Street rabies virus Dog, ZJ-HZ09, Zhejiang (rabies virus).
Experiment [11] deals with Street rabies virus Human, HN35, Hunan (rabies virus).

Sequence of UniProt O92284 (O92284 20-524): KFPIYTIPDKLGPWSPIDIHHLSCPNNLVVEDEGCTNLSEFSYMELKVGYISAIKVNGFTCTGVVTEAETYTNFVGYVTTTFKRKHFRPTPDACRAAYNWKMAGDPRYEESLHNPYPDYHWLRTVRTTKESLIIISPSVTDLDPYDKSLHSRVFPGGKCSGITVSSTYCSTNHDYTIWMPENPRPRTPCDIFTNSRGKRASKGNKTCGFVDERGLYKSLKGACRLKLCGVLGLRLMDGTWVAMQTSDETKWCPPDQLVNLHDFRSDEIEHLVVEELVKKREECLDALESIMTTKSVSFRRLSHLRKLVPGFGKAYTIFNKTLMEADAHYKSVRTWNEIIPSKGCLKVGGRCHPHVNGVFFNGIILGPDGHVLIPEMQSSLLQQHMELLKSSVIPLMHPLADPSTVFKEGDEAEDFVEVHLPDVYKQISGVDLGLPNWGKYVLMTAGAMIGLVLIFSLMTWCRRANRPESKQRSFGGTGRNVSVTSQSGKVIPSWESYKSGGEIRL

B1: Hu1A9-1 (antibody, V domains shown)
VH: QVQLVQSGAEVKKPGASVKVSCKASGYSFTDYIMLWVRQAPGQRLEWIGDIYPYYGSTSYNLKFKGKATLTVDTSASTAYMELSSLRSEDTAVYYCARQGGDGNYVLFDYWGQGTLVTVSS
VL: DIQMTQSPSSLSASVGDRVTITCKASQNVGTTVAWYQQKPGKAPKALIYSASYRYSGVPSRFSGSGSGTDFTLTISSLQPEDFATYYCQQYNSYPFTFGQGTKLEIKR
In experiment [1], B1 showed a Neutralization potency (IU/mg), FAVN of 2100 IU/mg; a Neutralization potency (IU/mg), RFFIT of 2290 IU/mg; a mouse neutralization test (MNT): survival rate at 0.004 mg/mL antibody of 100%.

B2: Hu1A9-2 (antibody, V domains shown)
VH: QVQLVQSGAEVKKPGASVKVSCKASGYSFTDYIMLWVRQAPGQRLEWIGDIYPYYGSTSYNLKFKGKATLTVDTSASTAYMELSSLRSEDTAVYYCARQGGDGNYVLFDYWGQGTLVTVSS
VL: DIQMTQSPSSLSASVGDRVTITCKASQNVGTTVAWYQQKPGKAPKVLIYSASYRYSGVPSRFSGSGSGTDFTLTISSLQPEDFATYYCQQYNSYPFTFGQGTKLEIKR
For B2, in experiment [1], the Neutralization potency (IU/mg), FAVN worked out at 405 IU/mg and the Neutralization potency (IU/mg), RFFIT stood at 1310 IU/mg.

B3: Mouse CT.RV 7G11A3 2G11 (antibody, V domains shown)
VH: EVQLVESGGGLVKPGGSLILSCAASGFTFSGFAMSWVRQTPEKRLEWVATISSGGTYTYSPDSVMGRFTISRDNAKNTLYLQMSSLRSEDTAMYYCARRLRRNYYSMDYWGQGTSVTVSS
VL: DVVLTQAPLSLPVNIGDQASISCKSTKSLLNSDGFTYLDWYLQKPGQSPQLLIYLVSNRFSGVPDRFSGSGSGTDFTLKISRVEAEDLGIYFCFQSNYLPFTFGSGTKLEIK
Turning to B3, the mouse neutralization test (MNT): survivors of 8 mice at day 20 (of 8 surviving) in experiment [2] amounted to 7; in experiment [3], 8; in experiment [4] it was 8; in experiment [5], 6; in experiment [6], 8; in experiment [7], 8. The mouse neutralization test (MNT): survivors of 8 mice at day 20 (of 8 surviving) was found to be 8 in experiment [8], 7 in experiment [9], 7 in [10] and 8 in experiment [11]. The molecule further returned a Neutralization potency (IU/mg), FAVN in experiment [1] of 8310 IU/mg. In addition, the Neutralization potency (IU/mg), RFFIT in [1] was 1670 IU/mg. The Neutralizing Potency (IU/mg), RFFIT in experiment [1] was 701 IU/mg.

B4: Mouse CT.RV 3D11E3 1A9 (antibody, V domains shown)
VH: EIQLQQTGPELVKPGASVKISCKASGYSFTDYIMLWVKQSHGKSLEWIGDIYPYYGSTSYNLKFKGKATLTVDKSSSTAYMQLNSLTSEDSAVYYCARQGGDGNYVLFDYWGQGTTLTVSS
VL: DIVMTQSQKFMSTSVGDRVSVTCKASQNVGTTVAWYQQKPGQSPKALIYSASYRYSGVPDRFTGSGSGTDFTLTISNVQSEDLAEYFCQQYNSYPFTFGSGTKLEIK
For B4, the mouse neutralization test (MNT): survivors of 8 mice at day 20 (of 8 surviving) was 7 in experiment [2]; 7 in experiment [3]; 8 in experiment [4]; 4 in [5]; 8 in [6]; 7 in experiment [7]. The mouse neutralization test (MNT): survivors of 8 mice at day 20 (of 8 surviving) in experiment [8] worked out at 8; in experiment [9], 7; in [10], 6; in experiment [11] it was 8. The Neutralization potency (IU/mg), FAVN in [1] is 308 IU/mg. In addition, the Neutralization potency (IU/mg), RFFIT in experiment [1] is 1260 IU/mg. The molecule further displayed a Neutralizing Potency (IU/mg), RFFIT in experiment [1] of 3680 IU/mg. Besides, in [1], the mouse neutralization test (MNT): survival rate at 0.004 mg/mL antibody is 50%.
